Consider 3 molecules from paper PMC7491322, “Molecular basis for the distinct cellular functions of the Lsm1–7 and Lsm2–8 complexes” (RNA, 2020).

The labels stand for the following.
B2: S. pombe Lsm3 (natural protein)
chain: not shown
notes: Lsm3, S. pombe, codon-optimised open reading frame; TEV site between GST and Lsm3; The complex was held through the GST on Lsm3 on glutathione agarose during the purification; TEV protease was added to the eluate before the later steps and the crystallisation; source: E. coli BL21(DE3) STAR pLysS, coexpressed with the other Lsm proteins, purified as part of the Lsm2–8 or Lsm1–7 complex; not …

Holding throughout (conditions): both partners purified
The target of test [1] is T1, S. pombe Lsm2 (S. pombe, UniProt O94408 1-96).
T1 construct: Lsm2, S. pombe, codon-optimised open reading frame, no purification tag; source: E. coli BL21(DE3) STAR pLysS, coexpressed with the other Lsm proteins, purified as part of the Lsm2–8 or Lsm1–7 complex
T1 sequence (looked up): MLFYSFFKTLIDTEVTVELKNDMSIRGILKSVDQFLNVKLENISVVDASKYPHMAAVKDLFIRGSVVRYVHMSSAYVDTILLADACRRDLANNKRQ
Nature of the test: crystal structure; Lsm2–8 ring with UUUUU-3′-OH (1.9 Å) or UUUUU>p (2.3 Å); hanging drop, 16°C, 100–200 mM KCl, 50–100 mM HEPES pH 7.4, 35% pentaerythritol propoxylate.

Test [2] has as its target B2. The description is as above.
Test [3] concerns the target T2, S. pombe Lsm4 (S. pombe, UniProt O14352 1-121).
T2 construct: Lsm4, S. pombe, codon-optimised open reading frame; noncleavable tag; source: E. coli BL21(DE3) STAR pLysS, coexpressed with the other Lsm proteins, purified as part of the Lsm2–8 or Lsm1–7 complex; not shown: Strep-II, C-terminal, kept
T2 sequence (looked up): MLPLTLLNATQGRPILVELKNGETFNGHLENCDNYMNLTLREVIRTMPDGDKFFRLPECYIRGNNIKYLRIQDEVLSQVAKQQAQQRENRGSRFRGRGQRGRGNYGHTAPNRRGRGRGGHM
Described as above.

The target of test [4] is T1, S. pombe Lsm2. Nature of the test: crystal structure; Lsm1_(Δ56C)–7 ring with UUUUUA (1.8 Å) or AUUUUG (2.1 Å); 10% PEG 8000, 20% ethylene glycol, HEPES/MOPS.
Test [5] concerns the target B2. Described as above.
Test [6] has as its target T3, S. pombe Lsm5 (S. pombe, UniProt O42978 2-80).
T3 construct: Lsm5, S. pombe, codon-optimised open reading frame, no purification tag; amino-terminal methionine missing by ESI-MS; source: E. coli BL21(DE3) STAR pLysS, coexpressed with the other Lsm proteins, purified as part of the Lsm2–8 or Lsm1–7 complex
Described as above.

T3 sequence (O42978 2-80): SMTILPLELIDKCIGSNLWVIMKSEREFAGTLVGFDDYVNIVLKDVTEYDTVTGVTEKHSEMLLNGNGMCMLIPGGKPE

B1: S. pombe Lsm8 (natural protein, UniProt O74483 2-94, looked up)
chain: SLADFMEQRVQVITNDGRVVLGSLKGFDHTTNLILSDSFERIISMDQDMETIPLGVYLLRGENVAMVGLVNEELDSEIEWTKIRGEAIPDVVH
notes: Lsm8, S. pombe, codon-optimised open reading frame, no purification tag; amino-terminal methionine missing by ESI-MS; source: E. coli BL21(DE3) STAR pLysS, coexpressed with the other Lsm proteins, purified as part of the Lsm2–8 complex
Consider B1, for which the binding result in test [1], in test [2] and in test [3] was “binds” each time.
As to B2, in test [4], the binding result is “binds”.

B3: S. pombe Lsm6 (natural protein, UniProt Q9UUI1 1-75, looked up)
chain: MDSSPNEFLNKVIGKKVLIRLSSGVDYKGILSCLDGYMNLALERTEEYVNGKKTNVYGDAFIRGNNVLYVSALDD
notes: Lsm6, S. pombe, codon-optimised open reading frame; source: E. coli BL21(DE3) STAR pLysS, coexpressed with the other Lsm proteins, purified as part of the Lsm2–8 or Lsm1–7 complex; not shown: MBP, N-terminal, cleaved
In the case of B3, the binding result in test [5] and in test [6] was “binds” each time.
